We go through 40 sequences from the nanobody polyreactivity screen of Harvey et al. (2022).

A short description of the series: yeast display, Sf9 membrane polyspecificity reagent, FACS + sequencing; frameworks hold sequencing errors. The procedure, abridged: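 In a synthetic yeast display library (Saccharomyces cerevisiae BJ5465), nanobody expression was induced with galactose for 36–48 hours. FACS gates were set low and high (top ~1%) using anti-HA fluorescence for expression and streptavidin fluorescence for binding of the Sf9 membrane reagent. Each polyreactivity label is drawn from the gate of origin.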
For the sequence “QVQLVESGGGLVQAGGSLRLSCAASGIIFLLYSMGWYRQAPGKERELVAAITNGGRTNYADSVKGRFTISRDNAKNTVYLQMNSLKPEDTAVYYCNAVLSVPDYTLFDYWGQGTQVTVSS”, the “polyreactivity (PSR sort gate)” value is listed as “low polyreactivity”.

On to “QVQLVESGGGLVQAGGSLRLSCAASGIIFLTNAMGWSRPAPAKERELVAAITAIGGSTYYADSVKGRFTISRDNAKNTVYLQMNSLKPEDTAVYYCAADFSYVYYLYDYWGQGTQVTVSS”, for which the “polyreactivity (PSR sort gate)” value is “low polyreactivity”.

Turning to “QVQLVESGGGLVQAGGSLRLSCAASGIIFNSYAMGWYRQAPGKERELVAAITRAGRTYYADSVKGRFPISRDNAKNTVDLQMNSLKPEDTAVYYCAAAFLSRVQGYDSWGQGTQVTVSS”, the “polyreactivity (PSR sort gate)” value was “high polyreactivity”.

Consider “QVQLVESGGGLVQAGGSLRLSCAASGIIFNYYAMGWYRQAPGKERELVAAITRGGRTNYADSVKGRFTISRDNAKNTVYLQMNSLKPEDTAVYYCNAPAFYTYKSFYAHSGYDYWGQGTQVTVSS”, for which the “polyreactivity (PSR sort gate)” value was “high polyreactivity”.

With “QVQLVESGGGLVQAGGSLRLSCAASGIIFPFYAMGWYRQAPGKERELVAAITSDGNTNYADSVKGRFTISRDNAKNTVYLQMNSLKPEDTAVYYCNAETQYGVLSWHSTRHDYWGQGTQVTVSS”, the “polyreactivity (PSR sort gate)” value is listed as “low polyreactivity”.

Regarding “QVQLVESGGGLVQAGGSLRLSCAASGIIFPFYAMGWYRQEPGKERELVAAITSGDDTYYADSVKGRFTISRDNAKNTVYLQMNSLKPEDTAVYYCAADSPYVVAWPYVWYFTFDYCGQGTQVTVSS”, the “polyreactivity (PSR sort gate)” value is recorded as “low polyreactivity”.

In the case of “QVQLVESGGGLVQAGGSLRLSCAASGIIFPGNVMGWYRQAPGKERELVAGISSSGSRTYYADSVKGRFTISRDNAKNTVYLQMNSLKPEDTAVYYCAAEHQRSRGRRYYIGYDYWGQGTQVTVSS”, the “polyreactivity (PSR sort gate)” value is on record as “low polyreactivity”.

On to “QVQLVESGGGLVQAGGSLRLSCAASGIIFPLYAMGWYRQAPGKDRELVADITRVGSTYYADSVKGRFTISRDNAKNTVYLQMNSLKPEDTAVYYCNKQKRWTYSHYFPTTYDYWGQGTQVTVSS”, for which the “polyreactivity (PSR sort gate)” value is recorded as “high polyreactivity”.

As to “QVQLVESGGGLVQAGGSLRLSCAASGIIFPQYTMGWYRQAPGKERQLVAAITRSGGSTDYADSVKGRFTISRDNAKNTVYLQMNSLKPEDTAVYYCAAGWWRYKYPIGSSYNYWGQGTQVTVSS”, the “polyreactivity (PSR sort gate)” value is “high polyreactivity”.

As to “QVQLVESGGGLVQAGGSLRLSCAASGIIFPSYAMGWYRQAPGKERELVAAINSSGGSTYYADSVKGRFTISRDNAKNTVYLQMNSLKPEDTAVYYCAAEADLQWYPYSFPYPYYYWGQGTQVTVSS”, the “polyreactivity (PSR sort gate)” value is “high polyreactivity”.

As for “QVQLVESGGGLVQAGGSLRLSCAASGIIFPSYAMGWYRQAPGKERELVAAISLSGGRTYYADSVKGRFTISRDNAKNTVYLQMNSLKPEDTAVYYCAAYPTTRYSKYGYYWGQGTQVTVSS”, the “polyreactivity (PSR sort gate)” value is given as “high polyreactivity”.

Turning to “QVQLVESGGGLVQAGGSLRLSCAASGIIFPSYAMGWYRQAPGKERELVAAISLSGGRTYYADSVKGRFTISRDNAKNTVYLQMYSLKPEDTAVYYCAAYPSTSYSKYGYYWGQGTLVTVSS”, the “polyreactivity (PSR sort gate)” value is “high polyreactivity”.

Consider “QVQLVESGGGLVQAGGSLRLSCAASGIIFPVYAMGWFRQAPGKERELVATIDSGGGTYYADSVKGRFTISRDNANNTVYLQMNSLKPEDTAVYYCNASHPPKAELAHWGQGTQVTVSS”, for which the “polyreactivity (PSR sort gate)” value was “low polyreactivity”.

Regarding “QVQLVESGGGLVQAGGSLRLSCAASGIIFPVYAMGWYRQAPGKERELVAAISSSGSSTYYADSVKGRFTISRDNAKNTVYLQMNSLKPEDTAVYYCAAVRYGLRRMDYWGQGTQVTVSS”, the “polyreactivity (PSR sort gate)” value is given as “high polyreactivity”.

In the case of “QVQLVESGGGLVQAGGSLRLSCAASGIIFPYNTMGWYRQAPGKERELVASIDDGGSTNYADSVKGRFTISRDNAKNTVYLQMNSLKPEDTAVYYCNADLFFIYVRQPGYDYWGQGTQVTVSS”, the “polyreactivity (PSR sort gate)” value is given as “low polyreactivity”.

“QVQLVESGGGLVQAGGSLRLSCAASGIIFPYYAMGWYRQAPGKERELVAAISSRDGRTYYADSVKGRFTISRDNAKNTVYLQMNSLKPEDTAVYYCAARAVGGVRGYRYDYWGQGTQVTVSS”: the “polyreactivity (PSR sort gate)” value is reported as “high polyreactivity”.

In the case of “QVQLVESGGGLVQAGGSLRLSCAASGIIFPYYTMGWYRQAPGKERELVARITNGGRTYYADSVKGRFTISRDNAKNTVYLQMNSLKPEDTGVYYCAADSRYDYEYWGQGTQVTVSS”, the “polyreactivity (PSR sort gate)” value is on record as “high polyreactivity”.

Regarding “QVQLVESGGGLVQAGGSLRLSCAASGIIFQLYAMGWYRQAPGKERELVASITLSGTTTYYADSVKGRVTISRDNAKNTVYLQMNSLKPEDTAVYYCAKEYYYWGQGTQVTVSS”, the “polyreactivity (PSR sort gate)” value is reported as “low polyreactivity”.

With “QVQLVESGGGLVQAGGSLRLSCAASGIIFQRNDMGRYRQAPGKERELVANIRDGGITYADSVKGRFTISRDNAKNTVYLQMNSLKPEDTAVYYCARDDTSPGYGDQSSNAAYYYWGQGTQVTVSS”, the “polyreactivity (PSR sort gate)” value was “low polyreactivity”.

For “QVQLVESGGGLVQAGGSLRLSCAASGIIFQRNDMGWYRQAPGKERELVANIRDGGITYADSVKGRFTISRDNAKNTVYLQMNSLKPEDTAVYYCARDDTSPGYGDQSFNAAYYYWGQGTQVTVSS”, the “polyreactivity (PSR sort gate)” value is recorded as “low polyreactivity”.

As to “QVQLVESGGGLVQAGGSLRLSCAASGIIFQSYTMGWYRPATGKERELVAAIDSGGSTYYADSVKGRFTISRDNAKNTVYLQMNSLKREDTAVYYCAAEPDTYWYTFYYWGQGTQVTVSS”, the “polyreactivity (PSR sort gate)” value is on record as “low polyreactivity”.

As for “QVQLVESGGGLVQAGGSLRLSCAASGIIFQWYAMGWYSQAPGKERELVAAINSDGSTYYADSVKGRFTISRDNAKNTVYLQMNSLIPEDTAVYYCAADFIPLIGFDYWGQGTQVTVSS”, the “polyreactivity (PSR sort gate)” value is “low polyreactivity”.

For the sequence “QVQLVESGGGLVQAGGSLRLSCAASGIIFQYYAMGWYRPAPGKEREWVAAITSSGDRTYYADSVKGRFTISRDNAKNNVILQMNSLNPEDTAVYYCNAVYYLDYHYGYEFGYWGQGTQVTVSS”, the “polyreactivity (PSR sort gate)” value is recorded as “high polyreactivity”.

With “QVQLVESGGGLVQAGGSLRLSCAASGIIFRDYGMGWSRQAPGKEREFVATITYSGGGTYYADSVKGRFTISRDKAKNTVYLQMNSLKPEDTAVYYCAAYPFYYDLAYDYWGQGTQVTVSS”, the “polyreactivity (PSR sort gate)” value is “low polyreactivity”.

Regarding “QVQLVESGGGLVQAGGSLRLSCAASGIIFRGNVMGWSRQAPGKERELVAAISGSGGRTYYADSVKGRFTISRDNAKNTVYLQMNSLKPEDTAVYYCNADKAIRYDYWGQGTQVTVSS”, the “polyreactivity (PSR sort gate)” value is “high polyreactivity”.

As to “QVQLVESGGGLVQAGGSLRLSCAASGIIFRHNAMGWYRQAPGKERELVAAISSGGNTYYADSVKGRFTISRDNAKNTVYLQMNSLKPEDTAVYYCAADVQDRYHRAWYDYWGQGTQVTVSS”, the “polyreactivity (PSR sort gate)” value was “low polyreactivity”.

Regarding “QVQLVESGGGLVQAGGSLRLSCAASGIIFRLNAMGWYRQAPGKERELVAAIRRRGGSTYYADSVKGRFTISRDIAKNTVYLQMNSLKPEDTAVYYCAKDPHGSDFGYWGQGTQVTVSS”, the “polyreactivity (PSR sort gate)” value is “low polyreactivity”.

As to “QVQLVESGGGLVQAGGSLRLSCAASGIIFRLNTMGWYRQAPGKERELVAAITSGGSTQYADSVKGRFTISRDNAKNTVYLQMNSLKPEDSAVYYCAAGHRANYWAWHFYYPGDFWGQGTQVTVSS”, the “polyreactivity (PSR sort gate)” value is “low polyreactivity”.

Turning to “QVQLVESGGGLVQAGGSLRLSCAASGIIFRNNAMGWYRQAPGKERELVAAISRRGGSTSYADSVKGRFTISRDNAKNTVYLQMNSLKPEDTAVYYCNKAGPYYGYPHYLFYYWGQGTQVTVSS”, the “polyreactivity (PSR sort gate)” value was “high polyreactivity”.

As to “QVQLVESGGGLVQAGGSLRLSCAASGIIFRRNAMGWYRQAPGKERELVAAIRWSGGSTYYADSVKGRFTISRDNAKNTVYLQMNSLKPEDTAVYYCAARYYRPRYEMDYWGQGTQVTVSS”, the “polyreactivity (PSR sort gate)” value was “low polyreactivity”.

As to “QVQLVESGGGLVQAGGSLRLSCAASGIIFRRYAMGWYRQAPGKERELVAAISSSGGNTYYADSVKGRFTISRDNAKNTVYLQMYSLKPEDTAVYYCAARSQIYYRYRSYGYWGQGTQVTVSS”, the “polyreactivity (PSR sort gate)” value is “high polyreactivity”.

Take “QVQLVESGGGLVQAGGSLRLSCAASGIIFRRYAMGWYRQAPGKERELVATITWSGGSTYYADSVKGRFTISRDNAKNTVYLQMNSLKPEDTAVYYCAKRGSRLYRLDYWGQGTQVTVSS”: the “polyreactivity (PSR sort gate)” value is given as “high polyreactivity”.

Take “QVQLVESGGGLVQAGGSLRLSCAASGIIFRTYAMGCYRQAPVKERELVAAITGSGGITYYADSVKGRFTISRDNAKNTVYLQMNSLKPEDTAVYYCAARGTRDGVQRYGYWGQGSQVTVSS”: the “polyreactivity (PSR sort gate)” value was “high polyreactivity”.

As to “QVQLVESGGGLVQAGGSLRLSCAASGIIFRTYDMGWYRQAPGKERELVANISWSAGSTYYADSVKGRFTISRDNAKNTVYLQMNSLKPEDTAVYFCNAVRLYPSSYDYWGQGTQVTVSS”, the “polyreactivity (PSR sort gate)” value is recorded as “low polyreactivity”.

In the case of “QVQLVESGGGLVQAGGSLRLSCAASGIIFRVNAMGWYRQAPGKERELVAAISSGGRTYYADSVKGRFTISRDNAKNTVYLQMNSLKPEDTAVYYCAAKPPSTYDYWGQGTQVTVSS”, the “polyreactivity (PSR sort gate)” value is recorded as “high polyreactivity”.

Take “QVQLVESGGGLVQAGGSLRLSCAASGIIFRVYTMGWYRQAPGKERELVAGISSGDSTSYADSVKGRFTISRDNAKNTVYLQMNSLKPEDTAVYYCNAVAYYSYSANFRNAYDYWGQGTQVTVSS”: the “polyreactivity (PSR sort gate)” value is recorded as “low polyreactivity”.

Turning to “QVQLVESGGGLVQAGGSLRLSCAASGIIFRWYVMGWYRQAPGKERELVAAISYRRGSTNYADSVKGRFTISRDNAKNTVYLQMNSLKPEDTAVYYCNRVPYPGSRRKYDYWGQGTQVTVSS”, the “polyreactivity (PSR sort gate)” value is on record as “high polyreactivity”.

“QVQLVESGGGLVQAGGSLRLSCAASGIIFRYNAMGWYRQAPGKERELVAVINWRSGGTYYADSVKGRFTISRDNAKNTVYLQMNSLKPDDTADYYCADRVGSWTQSFGYDYWGQGTQVTVSS”: the “polyreactivity (PSR sort gate)” value is “high polyreactivity”.

As to “QVQLVESGGGLVQAGGSLRLSCAASGIIFRYNTMGWYRQAPGKERELVAAISGGGRTYYADSVKGRFTISRDNAKNTVYLQMNSLKPEDTAVYYCAARYRTSGLDNYWGQGTQVTVSS”, the “polyreactivity (PSR sort gate)” value is “high polyreactivity”.

With “QVQLVESGGGLVQAGGSLRLSCAASGIIFRYYAMGWYRQAPGKERELVAAISSSGVSTYYADSVKGRFTISRDNAKNTVYLQMNSLKPEDTAVYYCNAVIWVRQYFSRSSSNYWGQGTQVTVSS”, the “polyreactivity (PSR sort gate)” value is recorded as “high polyreactivity”.
